Where “and” joins values, the source holds several entries; their conditions need not be identical. Equal entries are not always repeated.
Columns and labels:
[1] = target: M2 protein of influenza A/Puerto Rico/8/34 (H1N1), on virus particles (influenza A virus A/Puerto Rico/8/34 (H1N1)) (UniProt P06821)
[2] = target: M2 protein of influenza A/Hong Kong/483/97 (H5N1) (influenza A virus A/Hong Kong/483/97 (H5N1)); note: test concentration or dose not given here
[3] = target: hemagglutinin (HA) of live influenza A/Solomon Islands/3/06 (H1N1) virus (influenza A virus A/Solomon Islands/3/2006 (H1N1)); test: cell-based or functional assay
[4] = target: hemagglutinin (HA) of live influenza A/Wisconsin/67/05 (H3N2) virus (influenza A virus A/Wisconsin/67/2005 (H3N2)); test: cell-based or functional assay
[5] = target: hemagglutinin (HA) of live influenza A/California/4/09 (H1N1) virus (influenza A virus A/California/04/2009 (H1N1)); test: cell-based or functional assay
[6] = target: recombinant soluble homotrimeric HA of A/Hong Kong/2108/03 (H9N2) (Influenza A virus A/Hong Kong/2108/2003 (H9N2)); test: HA microarray, control mAb
[7] = target: recombinant soluble homotrimeric HA of A/duck/Yangzhou/02/2005 (H8N4) (Influenza A virus A/duck/Yangzhou/02/2005 (H8N4)); test: HA microarray, control mAb
[8] = target: recombinant soluble homotrimeric HA of A/Wisconsin/67/05 (H3N2) (Influenza A virus A/Wisconsin/67/2005 (H3N2)); test: HA microarray, control mAb
[9] = target: recombinant soluble homotrimeric HA of A/chicken/Vietnam/NCVD-016/08 (H5N1) (Influenza A virus A/chicken/Vietnam/NCVD-016/2008 (H5N1)); test: HA microarray, control mAb
[10] = target: recombinant soluble homotrimeric HA of A/Japan/305/57 (H2N2) (Influenza A virus A/Japan/305/1957 (H2N2)); test: HA microarray, control mAb
[11] = target: recombinant soluble homotrimeric HA of A/Netherlands/219/03 (H7N7) (Influenza A virus A/Netherlands/219/03 (H7N7)); test: HA microarray, control mAb
[12] = target: recombinant soluble homotrimeric HA of A/northern shoveler/California/HKWF115/2007 (H6N1) (Influenza A virus A/northern shoveler/California/HKWF115/2007 (H6N1)); test: HA microarray, control mAb
[13] = target: recombinant soluble homotrimeric HA of A/Anhui/1/05 (H5N1) (Influenza A virus A/Anhui/1/2005 (H5N1)); test: HA microarray, control mAb
[14] = target: recombinant soluble homotrimeric HA of A/Solomon Islands/3/06 (H1N1) (Influenza A virus A/Solomon Islands/3/2006 (H1N1)); test: HA microarray, control mAb
[15] = target: recombinant soluble homotrimeric HA of A/Vietnam/1203/04 (H5N1) (Influenza A virus A/Vietnam/1203/2004 (H5N1)); test: HA microarray, control mAb
[16] = target: recombinant soluble homotrimeric HA of A/Egypt/3300-NAMRU3/08 (H5N1) (Influenza A virus A/Egypt/3300-NAMRU3/2008 (H5N1)); test: HA microarray, control mAb
[17] = target: recombinant soluble homotrimeric HA of A/Indonesia/5/05 (H5N1) (Influenza A virus A/Indonesia/5/2005 (H5N1)); test: HA microarray, control mAb
[18] = target: recombinant soluble homotrimeric HA of A/swine/Ontario/01911-2/99 (H4N6) (Influenza A virus A/Swine/Ontario/01911-2/99 (H4N6)); test: HA microarray, control mAb
[19] = target: recombinant soluble homotrimeric HA of A/California/4/09 (H1N1) (Influenza A virus A/California/04/2009 (H1N1)); test: HA microarray, control mAb
[20] = target: Hemagglutinin of influenza A/Wisconsin/67/05 (H3N2) on whole virions (Influenza A virus A/Wisconsin/67/2005(H3N2)); note: test concentration or dose not given here
[21] = target: Hemagglutinin of influenza A/Solomon Islands/3/06 (H1N1) on whole virions (Influenza A virus A/Solomon Islands/3/2006(H1N1)); note: test concentration or dose not given here
[22] = target: recombinant soluble homotrimeric HA, A/Hong Kong/1073/99 (H9N2) (influenza A virus A/Hong Kong/1073/99 (H9N2)); test: microarray, trimeric HA, transfection supernatant
[23] = target: recombinant soluble homotrimeric HA, A/Hong Kong/156/97 (H5N1) (influenza A virus A/Hong Kong/156/97 (H5N1)); test: microarray, trimeric HA, transfection supernatant
[24] = target: recombinant soluble homotrimeric HA, A/Hong Kong/2108/03 (H9N2) (influenza A virus A/Hong Kong/2108/2003 (H9N2)); test: microarray, trimeric HA, transfection supernatant
[25] = target: recombinant homotrimeric HA, A/California/4/09 H1N1 (Influenza A virus A/California/4/09 (H1N1)); test: trimeric HA microarray; transfection supernatant set 5
[26] = target: recombinant homotrimeric HA, A/Japan/305/57 H2N2 (Influenza A virus A/Japan/305/57 (H2N2)); test: as above
[27] = target: recombinant homotrimeric HA, A/Wisconsin/67/05 H3N2 (Influenza A virus A/Wisconsin/67/05 (H3N2)); test: as above
[28] = target: recombinant homotrimeric HA, A/Indonesia/5/05 H5N1 (Influenza A virus A/Indonesia/5/05 (H5N1)); test: as above
[29] = target: recombinant homotrimeric HA, A/Egypt/3300-NAMRU3/08 H5N1 (Influenza A virus A/Egypt/3300-NAMRU3/08 (H5N1)); test: as above
[30] = target: recombinant homotrimeric HA, A/Vietnam/1203/04 H5N1 (Influenza A virus A/Vietnam/1203/04 (H5N1)); test: as above
[31] = target: recombinant homotrimeric HA, A/South Carolina/1/18 H1N1 (Influenza A virus A/South Carolina/1/18 (H1N1)); test: as above
[32] = target: recombinant homotrimeric HA, A/Solomon Islands/3/06 H1N1 (Influenza A virus A/Solomon Islands/3/06 (H1N1)); test: as above
[33] = target: recombinant homotrimeric HA, A/swine/Ontario/01911-2/99 H4N6 (Influenza A virus A/swine/Ontario/01911-2/99 (H4N6)); test: as above
Throughout, for Virus ELISA OD A450: test concentration or dose not given here.

TCN-032 (8I10) (antibody), sequence (VH): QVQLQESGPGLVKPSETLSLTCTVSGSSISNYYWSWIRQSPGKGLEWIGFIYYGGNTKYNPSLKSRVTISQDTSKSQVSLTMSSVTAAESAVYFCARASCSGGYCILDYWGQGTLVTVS
TCN-032 (8I10) (antibody), sequence (VL): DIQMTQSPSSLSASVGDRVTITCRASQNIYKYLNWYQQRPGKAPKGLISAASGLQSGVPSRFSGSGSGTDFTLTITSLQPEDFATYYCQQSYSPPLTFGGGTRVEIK

mAb 2N9 (antibody)
Virus ELISA OD A450 [1]: 0.15 OD A450 and 0.05 OD A450
FACS M2-HK MFI [2]: 11 MFI and 6 MFI

TCN-202 (2N9) (antibody)
% Neutralization [3]: 0% and 7%
% Neutralization [4]: 17.8% and 0%
% Neutralization [5]: 0%
Trimeric HA Binding RLU [6]: 50 RLU
Trimeric HA Binding RLU [7]: 196 RLU
Trimeric HA Binding RLU [8]: 252 RLU
Trimeric HA Binding RLU [9]: 69 RLU
Trimeric HA Binding RLU [10]: 85 RLU
Trimeric HA Binding RLU [11]: 348 RLU
Trimeric HA Binding RLU [12]: 105 RLU
Trimeric HA Binding RLU [13]: 25 RLU
Trimeric HA Binding RLU [14]: 46 RLU
Trimeric HA Binding RLU [15]: 53 RLU
Trimeric HA Binding RLU [16]: 1280 RLU
Trimeric HA Binding RLU [17]: 24 RLU
Trimeric HA Binding RLU [18]: 75 RLU
Trimeric HA Binding RLU [19]: 39 RLU
OD450 [20]: 0.07 OD450 and 0.08 OD450
OD450 [21]: 0.07 OD450 and 0.08 OD450 and 0.1 OD450
Trimeric HA Binding RLU [22]: 57 RLU and 81 RLU
Trimeric HA Binding RLU [23]: 945 RLU
Trimeric HA Binding RLU [24]: 30 RLU and 22 RLU
Trimeric HA Binding: RLU [25]: 733 RLU
Trimeric HA Binding: RLU [26]: 1880 RLU
Trimeric HA Binding: RLU [27]: 581 RLU
Trimeric HA Binding: RLU [28]: 1970 RLU
Trimeric HA Binding: RLU [29]: 13900 RLU
Trimeric HA Binding: RLU [30]: 30000 RLU
Trimeric HA Binding: RLU [31]: 5330 RLU
Trimeric HA Binding: RLU [32]: 525 RLU
Trimeric HA Binding: RLU [33]: 2690 RLU

TCN-032 (8I10) (antibody)
FACS M2-HK MFI [2]: 754 MFI and 1080 MFI

Reference: patent US20150104459A1
